Changes are numbered by the printed parent chain. Each block holds one binder with its values, some of them ahead of it.
Molecular target: T1, CD3 epsilon homodimer protein (UniProt P07766 23-126)
T1 construct: also called CD3 (CD3 epsilon)
Assay: SPR Biacore T200, CD3e homodimer on chip, vs unaltered GLS3000 antibody
Method: An appropriate amount of CD3 epsilon homodimer protein was immobilized onto Sensor chip CM4 (GE Healthcare Japan Corp.) by the amine coupling method. Then, the antibody having an appropriate concentration was injected thereto as an analyte and allowed to interact with the CD3 epsilon homodimer protein on the sensor chip. Then, the sensor chip was regenerated by the injection of 10 mmol/L glycine-HCl (pH 1.5). The assay was conducted at 25 degrees C., and HBS-EP+(GE Healthcare Japan Corp.) was used as a running buffer. […] Each parameter was calculated using Biacore T200 Evaluation Software (GE Healthcare Japan Corp.).

T1 sequence (P07766 23-126): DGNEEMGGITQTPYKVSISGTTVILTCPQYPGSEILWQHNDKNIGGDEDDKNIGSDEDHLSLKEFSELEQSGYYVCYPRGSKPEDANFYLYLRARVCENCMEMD

ratio of amounts bound (Z=Y/X): 0.27
B1: GLS3000 G91A (antibody, name in Kabat numbering, V domains shown)
VH: QVQLVESGGGVVQPGRSLRLSCAASGFTFSNAWMHWVRQAPGKGLEWVAQIKAKSNNYATYYAESVKGRFTISRDDSKNSLYLQMNSLKTEDTAVYYCRYVHYGAYYGVDAWGQGTTVTVSS
VL: DIVMTQSPLSLPVTPGEPASISCRSSQSLVHSNRNTYLHWYQQKPGQAPRLLIYKVSNRFSGVPDRFSGSGSGTDFTLKISRVEAEDVGVYYCGQATQVPYTFGQGTKLEIK
notes: one-arm IgG as m2

ratio of amounts bound (Z=Y/X): 0.85
B2: GLS3000 H34V (antibody, name in Kabat numbering, V domains shown)
VH: B1 VH
VL: B1 VL with H39V, A96G
notes: one-arm IgG as m2

ratio of amounts bound (Z=Y/X): 0.16
B3: GLS3000 K50G (antibody, name in Kabat numbering, V domains shown)
VH: B1 VH
VL: B1 VL with K55G, A96G
notes: one-arm IgG as m2

ratio of amounts bound (Z=Y/X): 0.26
B4: GLS3000 H27dI (antibody, name in Kabat numbering, V domains shown)
VH: B1 VH
VL: B1 VL with H31I, A96G
notes: one-arm IgG as m2

ratio of amounts bound (Z=Y/X): 0.3
B5: GLS3000 H27dL (antibody, name in Kabat numbering, V domains shown)
VH: B1 VH
VL: B1 VL with H31L, A96G
notes: one-arm IgG as m2

ratio of amounts bound (Z=Y/X): 0.64
B6: GLS3000 H27dY (antibody, name in Kabat numbering, V domains shown)
VH: B1 VH
VL: B1 VL with H31Y, A96G
notes: one-arm IgG as m2

ratio of amounts bound (Z=Y/X): 0.26
B7: GLS3000 G91T (antibody, name in Kabat numbering, V domains shown)
VH: B1 VH
VL: B1 VL with A96T
notes: one-arm IgG as m2

ratio of amounts bound (Z=Y/X): 0.22
B8: GLS3000 K50D (antibody, name in Kabat numbering, V domains shown)
VH: B1 VH
VL: B1 VL with K55D, A96G
notes: one-arm IgG as m2

ratio of amounts bound (Z=Y/X): 0.3
B9: GLS3000 H27dV (antibody, name in Kabat numbering, V domains shown)
VH: B1 VH
VL: B1 VL with H31V, A96G
notes: one-arm IgG as m2

ratio of amounts bound (Z=Y/X): 0.27
B10: GLS3000 H34F (antibody, name in Kabat numbering, V domains shown)
VH: B1 VH
VL: B1 VL with H39F, A96G
notes: one-arm IgG as m2

ratio of amounts bound (Z=Y/X): 0.35
B11: GLS3000 H34M (antibody, name in Kabat numbering, V domains shown)
VH: B1 VH
VL: B1 VL with H39M, A96G
notes: one-arm IgG as m2

ratio of amounts bound (Z=Y/X): 0.24
B12: GLS3000 H27dP (antibody, name in Kabat numbering, V domains shown)
VH: B1 VH
VL: B1 VL with H31P, A96G
notes: one-arm IgG as m2

ratio of amounts bound (Z=Y/X): 0.23
B13: GLS3000 H27dE (antibody, name in Kabat numbering, V domains shown)
VH: B1 VH
VL: B1 VL with H31E, A96G
notes: one-arm IgG as m2

ratio of amounts bound (Z=Y/X): 0.29
B14: GLS3000 H27dK (antibody, name in Kabat numbering, V domains shown)
VH: B1 VH
VL: B1 VL with H31K, A96G
notes: one-arm IgG as m2

ratio of amounts bound (Z=Y/X): 0.59
B15: GLS3000 H34L (antibody, name in Kabat numbering, V domains shown)
VH: B1 VH
VL: B1 VL with H39L, A96G
notes: one-arm IgG as m2

ratio of amounts bound (Z=Y/X): 1.06
B16: GLS3000 H34A (antibody, name in Kabat numbering, V domains shown)
VH: B1 VH
VL: B1 VL with H39A, A96G
notes: one-arm IgG as m2

ratio of amounts bound (Z=Y/X): 2.17
B17: GLS3000 H34K (antibody, name in Kabat numbering, V domains shown)
VH: B1 VH
VL: B1 VL with H39K, A96G
notes: one-arm IgG as m2

ratio of amounts bound (Z=Y/X): 0.24
B18: GLS3000 K50E (antibody, name in Kabat numbering, V domains shown)
VH: B1 VH
VL: B1 VL with K55E, A96G
notes: one-arm IgG as m2

ratio of amounts bound (Z=Y/X): 0.89
B19: GLS3000 H34T (antibody, name in Kabat numbering, V domains shown)
VH: B1 VH
VL: B1 VL with H39T, A96G
notes: one-arm IgG as m2

ratio of amounts bound (Z=Y/X): 0.29
B20: GLS3000 H27dT (antibody, name in Kabat numbering, V domains shown)
VH: B1 VH
VL: B1 VL with H31T, A96G
notes: one-arm IgG as m2

ratio of amounts bound (Z=Y/X): 0.65
B21: GLS3000 H34I (antibody, name in Kabat numbering, V domains shown)
VH: B1 VH
VL: B1 VL with H39I, A96G
notes: one-arm IgG as m2

ratio of amounts bound (Z=Y/X): 0.3
B22: GLS3000 H27dG (antibody, name in Kabat numbering, V domains shown)
VH: B1 VH
VL: B1 VL with H31G, A96G
notes: one-arm IgG as m2

ratio of amounts bound (Z=Y/X): 0.17
B23: GLS3000 G91Y (antibody, name in Kabat numbering, V domains shown)
VH: B1 VH
VL: B1 VL with A96Y
notes: one-arm IgG as m2

ratio of amounts bound (Z=Y/X): 1.02
B24: GLS3000 H34G (antibody, name in Kabat numbering, V domains shown)
VH: B1 VH
VL: B1 VL with H39G, A96G
notes: one-arm IgG as m2

ratio of amounts bound (Z=Y/X): 0.27
B25: GLS3000 G91P (antibody, name in Kabat numbering, V domains shown)
VH: B1 VH
VL: B1 VL with A96P
notes: one-arm IgG as m2

ratio of amounts bound (Z=Y/X): 0.22
B26: GLS3000 H27dD (antibody, name in Kabat numbering, V domains shown)
VH: B1 VH
VL: B1 VL with H31D, A96G
notes: one-arm IgG as m2

ratio of amounts bound (Z=Y/X): 0.32
B27: GLS3000 H27dS (antibody, name in Kabat numbering, V domains shown)
VH: B1 VH
VL: B1 VL with H31S, A96G
notes: one-arm IgG as m2

ratio of amounts bound (Z=Y/X): 0.16
B28: GLS3000 G91D (antibody, name in Kabat numbering, V domains shown)
VH: B1 VH
VL: B1 VL with A96D
notes: one-arm IgG as m2

ratio of amounts bound (Z=Y/X): 0.25
B29: GLS3000 H27dQ (antibody, name in Kabat numbering, V domains shown)
VH: B1 VH
VL: B1 VL with H31Q, A96G
notes: one-arm IgG as m2

ratio of amounts bound (Z=Y/X): 0.23
B30: GLS3000 H34E (antibody, name in Kabat numbering, V domains shown)
VH: B1 VH
VL: B1 VL with H39E, A96G
notes: one-arm IgG as m2

ratio of amounts bound (Z=Y/X): 0.31
B31: GLS3000 H27dR (antibody, name in Kabat numbering, V domains shown)
VH: B1 VH
VL: B1 VL with H31R, A96G
notes: one-arm IgG as m2

ratio of amounts bound (Z=Y/X): 0.24
B32: GLS3000 H34W (antibody, name in Kabat numbering, V domains shown)
VH: B1 VH
VL: B1 VL with H39W, A96G
notes: one-arm IgG as m2

ratio of amounts bound (Z=Y/X): 0.23
B33: GLS3000 K50A (antibody, name in Kabat numbering, V domains shown)
VH: B1 VH
VL: B1 VL with K55A, A96G
notes: one-arm IgG as m2

ratio of amounts bound (Z=Y/X): 0.2
B34: GLS3000 H34R (antibody, name in Kabat numbering, V domains shown)
VH: B1 VH
VL: B1 VL with H39R, A96G
notes: one-arm IgG as m2

ratio of amounts bound (Z=Y/X): 0.26
B35: GLS3000 G91S (antibody, name in Kabat numbering, V domains shown)
VH: B1 VH
VL: B1 VL with A96S
notes: one-arm IgG as m2

ratio of amounts bound (Z=Y/X): 0.16
B36: GLS3000 G91E (antibody, name in Kabat numbering, V domains shown)
VH: B1 VH
VL: B1 VL with A96E
notes: one-arm IgG as m2

ratio of amounts bound (Z=Y/X): 0.25
B37: GLS3000 H34Q (antibody, name in Kabat numbering, V domains shown)
VH: B1 VH
VL: B1 VL with H39Q, A96G
notes: one-arm IgG as m2

ratio of amounts bound (Z=Y/X): 0.78
B38: GLS3000 H34S (antibody, name in Kabat numbering, V domains shown)
VH: B1 VH
VL: B1 VL with H39S, A96G
notes: one-arm IgG as m2

ratio of amounts bound (Z=Y/X): 0.3
B39: GLS3000 H27dM (antibody, name in Kabat numbering, V domains shown)
VH: B1 VH
VL: B1 VL with H31M, A96G
notes: one-arm IgG as m2

ratio of amounts bound (Z=Y/X): 0.63
B40: GLS3000 H27dF (antibody, name in Kabat numbering, V domains shown)
VH: B1 VH
VL: B1 VL with H31F, A96G
notes: one-arm IgG as m2

ratio of amounts bound (Z=Y/X): 0.59
B41: GLS3000 H34Y (antibody, name in Kabat numbering, V domains shown)
VH: B1 VH
VL: B1 VL with H39Y, A96G
notes: one-arm IgG as m2

ratio of amounts bound (Z=Y/X): 0.22
B42: GLS3000 H34D (antibody, name in Kabat numbering, V domains shown)
VH: B1 VH
VL: B1 VL with H39D, A96G
notes: one-arm IgG as m2

ratio of amounts bound (Z=Y/X): 0.65
B43: GLS3000 H34N (antibody, name in Kabat numbering, V domains shown)
VH: B1 VH
VL: B1 VL with H39N, A96G
notes: one-arm IgG as m2

ratio of amounts bound (Z=Y/X): 0.3
B44: GLS3000 H27dN (antibody, name in Kabat numbering, V domains shown)
VH: B1 VH
VL: B1 VL with H31N, A96G
notes: one-arm IgG as m2

ratio of amounts bound (Z=Y/X): 0.34
B45: GLS3000 H34P (antibody, name in Kabat numbering, V domains shown)
VH: B1 VH
VL: B1 VL with H39P, A96G
notes: one-arm IgG as m2

ratio of amounts bound (Z=Y/X): 0.39
B46: GLS3000 H27dW (antibody, name in Kabat numbering, V domains shown)
VH: B1 VH
VL: B1 VL with H31W, A96G
notes: one-arm IgG as m2

Reference: patent US20210388087A1 (Chugai, published 2021)
